Reference: US20030073142A1 (published 2003)

B1: test peptide number 539.9 (human IgE CH4 nonamer, Gln Leu Pro Asp Ala Arg His Ser Thr) (peptide)
peptide: QLPDARHST
B2: test peptide number 539.8 (human IgE CH1 nonamer, Leu Leu Thr Val Ser Gly Ala Trp Ala) (peptide)
peptide: LLTVSGAWA
B3: test peptide number 539.11 (human IgE CH2 nonamer, Trp Leu Ser Asp Arg Thr Tyr Thr Cys) (peptide)
peptide: WLSDRTYTC
B4: test peptide number 539.10 (human IgE CH1 nonamer, Thr Gln Ser Pro Ser Val Phe Pro Leu) (peptide)
peptide: TQSPSVFPL
B5: test peptide number 539.12 (human IgE CH1 nonamer, Trp Val Asp Asn Lys Thr Phe Ser Val) (peptide)
peptide: WVDNKTFSV

Each binder was assayed against human MHC-I HLA-A2.1 expressed on RMA-S-A2.1 cells (murine TAP-deficient RMA-S cells engineered to express … (human, UniProt A*02:01)) (assay: cell-based or functional assay).

HLA-A2.1-specific fluorescence intensity (FACS, surface HLA-A2.1 on TAP-deficient RMA-S-A2.1 cells after overnight incubation with 50 micromoles per liter peptide) [log] | Binder
1 | B1
1 | B2
1 | B3
1 | B4
1 | B5
